Source: article PMC10338323

Target: EvdS6 (Micromonospora carbonacea var. aurantiaca)
Experiment: crystal structure; EvdS6 with copurified NAD+, ligand-free and TDP-bound states; hanging drop at about 25 °C; two protein chains in the asymmetric unit

Work on EvdS6 (enzyme) yielded a stoichiometry N of 2.
